Test results from ChEMBL document CHEMBL2074277, “Expression and localization of organic cation/carnitine transporter OCTN2 in Caco-2 cells” (Am J Physiol Gastrointest Liver Physiol, 2003).

Substrate: C[N+](C)(C)CC(O)CC(=O)[O-]
Assay: TP_TRANSPORTER: uptake in Caco-2 cells
Assay type: functional, cell-based

B1: Organic cation/carnitine transporter 2 (Homo sapiens) (protein)
chain: MRDYDEVTAFLGEWGPFQRLIFFLLSASIIPNGFTGLSSVFLIATPEHRCRVPDAANLSSAWRNHTVPLRLRDGREVPHSCRRYRLATIANFSALGLEPGRDVDLGQLEQESCLDGWEFSQDVYLSTIVTEWNLVCEDDWKAPLTISLFFVGVLLGSFISGQLSDRFGRKNVLFVTMGMQTGFSFLQIFSKNFEMFVVLFVLVGMGQISNYVAAFVLGTEILGKSVRIIFSTLGVCIFYAFGYMVLPLFAYFIRDWRMLLVALTMPGVLCVALWWFIPESPRWLISQGRFEEAEVIIRKAAKANGIVVPSTIFDPSELQDLSSKKQQSHNILDLLRTWNIRMVTIMSIMLWMTISVGYFGLSLDTPNLHGDIFVNCFLSAMVEVPAYVLAWLLLQYLPRRYSMATALFLGGSVLLFMQLVPPDLYYLATVLVMVGKFGVTAAFSMVYVYTAELYPTVVRNMGVGVSSTASRLGSILSPYFVYLGAYDRFLPYILMGSLTILTAILTLFLPESFGTPLPDTIDQMLRVKGMKHRKTPSHTRMLKDGQERPTILKSTAF
- Km: 14.1 µM
